Test results as given in patent US20160333098A1 (published 2016).

Tests used:
[1] = molecular target: recombinant human insulin receptor (rhIR), immobilized (human, UniProt P06213-2 28-944, limits assumed); assay: hybridoma screening; method not described
[2] = molecular target: T1, recombinant human IGF-1R (rhIGF-1R), immobilized on plates or polystyrene beads (human, UniProt P08069 31-935); assay: labeled antibody on rhIGF-1R-coated beads; competitor: unlabeled R1
T1 construct: also called immobilized recombinant human IGF-1R; IGF-1R-coated beads

[3] = molecular target: T1, recombinant human IGF-1R (rhIGF-1R), …; assay: labeled antibody on rhIGF-1R-coated beads; competitor: unlabeled 1-2
[4] = molecular target: T1, recombinant human IGF-1R (rhIGF-1R), …; assay: labeled antibody on rhIGF-1R-coated beads; competitor: unlabeled 1H7
[5] = molecular target: T1, recombinant human IGF-1R (rhIGF-1R), …; assay: labeled antibody on rhIGF-1R-coated beads; competitor: unlabeled 2C8
[6] = molecular target: T1, recombinant human IGF-1R (rhIGF-1R), …; assay: labeled antibody on rhIGF-1R-coated beads; competitor: unlabeled 3B7
[7] = molecular target: T1, recombinant human IGF-1R (rhIGF-1R), …; assay: labeled antibody on rhIGF-1R-coated beads; competitor: unlabeled cR1
[8] = molecular target: T1, recombinant human IGF-1R (rhIGF-1R), …; assay: labeled antibody on rhIGF-1R-coated beads; competitor: unlabeled hR1
[9] = molecular target: T1, recombinant human IGF-1R (rhIGF-1R), …; assay: labeled antibody on rhIGF-1R-coated beads; competitor: unlabeled 17-69
[10] = molecular target: T1, recombinant human IGF-1R (rhIGF-1R), …; assay: labeled antibody on rhIGF-1R-coated beads; competitor: unlabeled 24-31
[11] = molecular target: T1, recombinant human IGF-1R (rhIGF-1R), …; assay: labeled antibody on rhIGF-1R-coated beads; competitor: unlabeled 24-57
[12] = molecular target: T1, recombinant human IGF-1R (rhIGF-1R), …; assay: labeled antibody on rhIGF-1R-coated beads; competitor: unlabeled 24-60
[13] = molecular target: T1, recombinant human IGF-1R (rhIGF-1R), …; assay: labeled antibody on rhIGF-1R-coated beads; competitor: unlabeled αIR-3
[14] = molecular target: T1, recombinant human IGF-1R (rhIGF-1R), …; assay: labeled antibody on rhIGF-1R-coated beads; competitor: unlabeled MAB391

recombinant human insulin receptor (rhIR), immobilized, sequence (P06213 other isoform, or with tags, fused parts or gaps limits assumed): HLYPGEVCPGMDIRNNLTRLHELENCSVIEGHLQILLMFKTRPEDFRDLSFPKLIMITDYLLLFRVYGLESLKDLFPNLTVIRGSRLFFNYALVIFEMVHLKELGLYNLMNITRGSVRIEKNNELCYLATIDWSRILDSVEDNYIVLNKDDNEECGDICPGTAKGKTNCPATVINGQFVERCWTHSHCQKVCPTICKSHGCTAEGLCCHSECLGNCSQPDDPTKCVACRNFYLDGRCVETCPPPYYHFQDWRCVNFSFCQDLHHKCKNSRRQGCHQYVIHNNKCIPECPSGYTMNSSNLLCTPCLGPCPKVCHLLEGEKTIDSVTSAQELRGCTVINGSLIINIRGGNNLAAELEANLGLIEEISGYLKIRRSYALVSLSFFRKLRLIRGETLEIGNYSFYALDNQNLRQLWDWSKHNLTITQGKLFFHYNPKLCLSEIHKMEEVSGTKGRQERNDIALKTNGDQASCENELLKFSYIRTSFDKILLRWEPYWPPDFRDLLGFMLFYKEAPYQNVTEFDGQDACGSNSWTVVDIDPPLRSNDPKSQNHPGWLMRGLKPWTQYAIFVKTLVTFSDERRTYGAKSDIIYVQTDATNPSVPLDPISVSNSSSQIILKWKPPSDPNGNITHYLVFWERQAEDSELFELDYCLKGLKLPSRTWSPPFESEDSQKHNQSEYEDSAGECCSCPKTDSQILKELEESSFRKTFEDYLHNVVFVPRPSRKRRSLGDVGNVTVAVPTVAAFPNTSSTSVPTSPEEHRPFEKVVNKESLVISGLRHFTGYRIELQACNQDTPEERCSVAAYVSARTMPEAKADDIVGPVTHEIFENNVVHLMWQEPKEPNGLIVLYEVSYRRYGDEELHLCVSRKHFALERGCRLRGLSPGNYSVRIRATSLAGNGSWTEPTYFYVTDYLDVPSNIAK

B1: mouse anti-IGF-1R antibody R1 (ML04R1) (antibody, V domains shown)
VH: EVKLVESGGGLVQPGGSLKLSCATSGFTFSDYYMYWVRQTPEKRLEWVAYITNYGGSTYYPDTVKGRFTISRDNAKNTLYLQMSRLRSEDTAMYFCARQSNYDYDGWFAYWGQGTTVTVSS
VL: DIVMTQSHKFMSTSVGDRVSITCKASQEVGTAVAWYQQKPGQSPKLLIYWASTRHTGVPDRFTGSGSGTDFTLTISNVQSEDLADYFCQQYSNYPLTFGAGAKLELKR
notes: Used unlabeled or tagged with a fluorescent probe (PE); also called murine R1; clone C-11
- binding result [1]: no binding
- % binding [2]: 0%
- % binding [3]: 100%
- % binding [4]: 150%
- % binding [5]: 100%
- % binding [6]: 117%
- % binding [7]: 0%
- % binding [8]: 0%
- % binding [9]: 100%
- % binding [10]: 100%
- % binding [11]: 100%
- % binding [12]: 43%
- % binding [13]: 143%
- % binding [14]: 100%
